Measured values as given in PMC8718897 (Translational Oncology, 2021).

Molecular target: Krüppel-like factor 9 (KLF9) (human (endogenous in MDA-MB-231), UniProt Q13886 1-244)
Assay: co-IP

Sequence of Krüppel-like factor 9 (KLF9) (Q13886 whole entry): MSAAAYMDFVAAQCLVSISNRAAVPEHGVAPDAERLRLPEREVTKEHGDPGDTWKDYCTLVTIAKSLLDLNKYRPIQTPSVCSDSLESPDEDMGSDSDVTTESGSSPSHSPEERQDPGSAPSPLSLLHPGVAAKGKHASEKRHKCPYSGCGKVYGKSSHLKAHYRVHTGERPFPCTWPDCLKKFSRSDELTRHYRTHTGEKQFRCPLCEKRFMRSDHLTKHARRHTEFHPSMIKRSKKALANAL

B1: SIN3A (natural protein, UniProt Q96ST3 1-1273, looked up)
chain: MKRRLDDQESPVYAAQQRRIPGSTEAFPHQHRVLAPAPPVYEAVSETMQSATGIQYSVTPSYQVSAMPQSSGSHGPAIAAVHSSHHHPTAVQPHGGQVVQSHAHPAPPVAPVQGQQQFQRLKVEDALSYLDQVKLQFGSQPQVYNDFLDIMKEFKSQSIDTPGVISRVSQLFKGHPDLIMGFNTFLPPGYKIEVQTNDMVNVTTPGQVHQIPTHGIQPQPQPPPQHPSQPSAQSAPAPAQPAPQPPPAKVSKPSQLQAHTPASQQTPPLPPYASPRSPPVQPHTPVTISLGTAPSLQNNQPVEFNHAINYVNKIKNRFQGQPDIYKAFLEILHTYQKEQRNAKEAGGNYTPALTEQEVYAQVARLFKNQEDLLSEFGQFLPDANSSVLLSKTTAEKVDSVRNDHGGTVKKPQLNNKPQRPSQNGCQIRRHPTGTTPPVKKKPKLLNLKDSSMADASKHGGGTESLFFDKVRKALRSAEAYENFLRCLVIFNQEVISRAELVQLVSPFLGKFPELFNWFKNFLGYKESVHLETYPKERATEGIAMEIDYASCKRLGSSYRALPKSYQQPKCTGRTPLCKEVLNDTWVSFPSWSEDSTFVSSKKTQYEEHIYRCEDERFELDVVLETNLATIRVLEAIQKKLSRLSAEEQAKFRLDNTLGGTSEVIHRKALQRIYADKAADIIDGLRKNPSIAVPIVLKRLKMKEEEWREAQRGFNKVWREQNEKYYLKSLDHQGINFKQNDTKVLRSKSLLNEIESIYDERQEQATEENAGVPVGPHLSLAYEDKQILEDAAALIIHHVKRQTGIQKEDKYKIKQIMHHFIPDLLFAQRGDLSDVEEEEEEEMDVDEATGAVKKHNGVGGSPPKSKLLFSNTAAQKLRGMDEVYNLFYVNNNWYIFMRLHQILCLRLLRICSQAERQIEEENREREWEREVLGIKRDKSDSPAIQLRLKEPMDVDVEDYYPAFLDMVRSLLDGNIDSSQYEDSLREMFTIHAYIAFTMDKLIQSIVRQLQHIVSDEICVQVTDLYLAENNNGATGGQLNTQNSRSLLESTYQRKAEQLMSDENCFKLMFIQSQGQVQLTIELLDTEEENSDDPVEAERWSDYVERYMNSDTTSPELREHLAQKPVFLPRNLRRIRKCQRGREQQEKEGKEGNSKKTMENVDSLDKLECRFKLNSYKMVYVIKSEDYMYRRTALLRAHQSHERVSKRLHQRFQAWVDKWTKEHVPREMAAETSKWLMGEGLEGLVPCTTTCDTETLHFVSINKYRVKYGTVFKAP
With B1 the “fold increase of association after 24 h with 5 uM PF1-SID peptide” value was 4.6 fold and the “fold increase of association in PF1-SID cells against vector cells” value was 2.5 fold.
